Reference: patent US20250197513A1, “OSMR-SPECIFIC MONOCLONAL ANTIBODIES AND METHODS OF THEIR USE” (THE BOARD OF REGENTS OF THE UNIVERSITY OF TEXAS SYSTEM, priority 2021, published 2025)

System: HEYA8 ovarian cancer cells
Assay: In vivo efficacy and survival, intraperitoneal HEYA8-Luc+ ovarian cancer model
Parameters: species or system athymic nude mice
Conditions: survival monitored for 100 days; antibody 10 mg/kg twice a week for 5 weeks; OSM 250 ng/kg
Experimental: To test the in vivo efficacy of anti-OSMR antibodies and overall survival efficiency post-treatment, Heya8-Luc+ cells (3×10^4 cells/animal) were intraperitoneally injected into 4-6-week-old athymic female nude mice (Nu/Nu) (Envigo, Madison, WI, USA) with a 27-gauge needle. Mice were monitored for tumor growth by bio-luminescence imaging IVIS100 and after 7 days post injection, randomly divided into 7 mice per group (efficacy testing) and 10 mice per group (survival studies). Mice were treated intraperitoneally twice weekly with Control IgG.
All the antibody clones were given at a concentration 10 mg/kg b.w twice a week for 5 weeks. All mice were euthanized at the end of 5 weeks or when moribund. Tumors were harvested and weighed, total number of tumor nodules and metastasis to distant organs were counted and imaged using IVIS100. The tumors were excised and proceeded for IHC, Western blotting and qPCR. For survival studies, the treatments were stopped after 5 weeks, and survival progression was monitored for a total of 100 days.

B1: OSM: recombinant human oncostatin M, ligand of OSMR, given with control IgG to stimulate tumor growth (protein)
chain: AAIGSCSKEYRVLLGQLQKQTDLMQDTSRLLDPYIRIQGLDVPKLREHCRERPGAFPSEETLRGLGRRGFLQTLNATLGCVLHRLADLEQRLPKAQDLERSGLNIEDLEKLQMARPNILGLRNNIYCMAQLLDNSDTAEPTKAGRGASQPPTPTPASDAFQRKLEGCRFLHGYHRFMHSVGRVFSKWGESPNRSRR
- median survival: 29 days
